# Experimental data published in patent US20240084003A1 (SIMCERE ZAIMING PHARMACEUTICAL, published 2024).
# Where a chain is given by its changes, count along the chain named.
# T1: human CD22, endogenous on Raji cells (human, UniProt P20273 20-847)
# T1 construct: whole, on cells; Endogenous protein of the Raji cell line
# T1 sequence (looked up): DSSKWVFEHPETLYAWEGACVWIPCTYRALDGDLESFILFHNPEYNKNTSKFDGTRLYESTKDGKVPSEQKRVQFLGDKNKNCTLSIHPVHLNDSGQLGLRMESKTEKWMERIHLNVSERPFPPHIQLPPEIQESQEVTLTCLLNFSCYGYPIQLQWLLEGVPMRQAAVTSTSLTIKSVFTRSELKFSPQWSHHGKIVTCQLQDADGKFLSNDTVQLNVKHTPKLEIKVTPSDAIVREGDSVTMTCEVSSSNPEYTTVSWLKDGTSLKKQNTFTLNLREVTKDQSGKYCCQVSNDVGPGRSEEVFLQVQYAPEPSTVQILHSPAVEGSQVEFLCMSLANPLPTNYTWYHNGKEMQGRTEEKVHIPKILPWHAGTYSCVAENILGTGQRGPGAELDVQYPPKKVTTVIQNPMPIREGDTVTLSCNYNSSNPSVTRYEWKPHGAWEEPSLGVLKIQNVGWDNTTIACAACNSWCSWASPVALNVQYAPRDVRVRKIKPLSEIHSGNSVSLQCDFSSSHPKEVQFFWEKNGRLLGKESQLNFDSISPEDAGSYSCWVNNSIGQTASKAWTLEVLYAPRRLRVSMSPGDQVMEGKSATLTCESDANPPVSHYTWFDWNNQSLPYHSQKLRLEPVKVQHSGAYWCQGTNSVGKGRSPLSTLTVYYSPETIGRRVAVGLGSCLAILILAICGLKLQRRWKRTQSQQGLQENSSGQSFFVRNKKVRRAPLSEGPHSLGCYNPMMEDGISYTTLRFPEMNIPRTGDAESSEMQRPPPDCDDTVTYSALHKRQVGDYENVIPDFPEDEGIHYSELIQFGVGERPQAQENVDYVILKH
# T2: human CD22, full length, on CHO-K1-human CD22 2C4 cells (human, UniProt P20273 20-847)
# T2 construct: Full-length human CD22 (NCBI NP_001762.2) stably transfected into CHO-K1
# T2 sequence: T1 sequence (looked up)
# T3: murine CD22 protein (ACROBiosystems, SI2-M52Ha) (murine, UniProt P35329 22-708)
# T3 construct: extracellular domain; also called murine CD22-ECD; murine CD22-ECD-His
# T3 sequence (looked up): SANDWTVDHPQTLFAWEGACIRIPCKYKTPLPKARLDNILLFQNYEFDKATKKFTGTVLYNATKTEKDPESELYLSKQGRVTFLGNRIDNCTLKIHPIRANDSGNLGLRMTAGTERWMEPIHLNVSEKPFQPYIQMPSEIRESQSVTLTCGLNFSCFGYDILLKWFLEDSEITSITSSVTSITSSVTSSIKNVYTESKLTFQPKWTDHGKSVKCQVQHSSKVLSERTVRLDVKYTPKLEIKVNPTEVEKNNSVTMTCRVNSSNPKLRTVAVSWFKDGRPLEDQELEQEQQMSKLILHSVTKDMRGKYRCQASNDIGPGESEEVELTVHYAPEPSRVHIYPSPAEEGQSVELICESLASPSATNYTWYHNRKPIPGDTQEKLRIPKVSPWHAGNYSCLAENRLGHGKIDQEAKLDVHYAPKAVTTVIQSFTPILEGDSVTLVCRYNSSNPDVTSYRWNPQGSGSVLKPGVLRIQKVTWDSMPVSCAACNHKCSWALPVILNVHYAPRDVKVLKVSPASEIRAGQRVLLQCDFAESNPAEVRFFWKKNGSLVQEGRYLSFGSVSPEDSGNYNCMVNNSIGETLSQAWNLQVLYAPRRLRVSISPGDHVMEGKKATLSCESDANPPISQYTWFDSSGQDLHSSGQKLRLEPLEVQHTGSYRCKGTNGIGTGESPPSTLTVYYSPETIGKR
# B1: F2.127.11 human-murine chimeric antibody (antibody, human IgG1, lambda, V domains shown)
# VH: QVTLKESGPGILQPSQTLSLTCSFSGFSLSTFGMGVGWIRQPSGKGLEWLAHIWWDDDKHYNPALKSRLTISKDTSRNQVFLKIANVDTADGATYFCARDNWVSSLDYWGQGTSVIVSS
# VL: QPVITQSSSASFSLGASAELTCTLSSQHSTYTIEWYQQQPLKPPKYVMGLKKDGSHSTGDGIPDRFSGSSSGADRYLSISNIQPEDEAIYICGVSDTIKEQFVYVFGGGTKVTVLG
# notes: Chimeric, human IgG1 / lambda; VL tied by name
# B2: F2.99.1 human-murine chimeric antibody (antibody, human IgG1, lambda, V domains shown)
# VH: QVTLKESGPGILQPSQTLSLTCSFSGFSLSTFPMGVGWIRQPSGKGLEWLAHIWWDDDEYYNPVLKSRLTISKDTSKKQVYLRIANVDTVDTATYYCTRANWDRWYFDVWGTGTTVTVSS
# VL: QLVLTQSSSASFSLGASAKLTCTLSRQHSAYTIEWYQQQPLKPPKYVMEVKKDGSHSTGDGIPDRFSGSSSGADRYLSISNIQPEDEAIYICGVGDTIKEHFVFGGGTKVTVLG
# notes: as for B1
# B3: F2.55.1 human-murine chimeric antibody (antibody, human IgG1, lambda, V domains shown)
# VH: QVTLKESGPGILQPSQTLSLTCSFSGFSLSTFPLGVGWIRQPSGKGLEWLAHVWWNDDDYYNPALKSRLTISKDTSNTRVFLSVASVDTAETATYYCARLNWDRWYFDVWGTGTTVTVSS
# VL: B2 VL with R26S, I33V, V50L, I98V, H101Q
# notes: as for B1
# B4: F2.42.9 human-murine chimeric antibody (antibody, human IgG1, lambda, V domains shown)
# VH: QVTLKESGPGILQPSQTLSLTCSFSGFSLSTFDRGVGWIRQPSGKGLEWLAHIWWNDKKFYNPVLKSRLTISKDTSKNQVFLTIANVDSADTATYSCARIVWDKYYFDYWGQGIPLTVSS
# VL: B2 VL with R26S, Y46F, E49D, V50L, D64A, S78T, H101Q, F102Y
# notes: as for B1
# B5: F2.205.9 human-murine chimeric antibody (antibody, human IgG1, lambda, V domains shown)
# VH: QVTLKESGPGILQPSQTLSLTCSFSGFSLSTSGMGVGWIRQPSGKGLEWLAHIWWDDDEYYNPALKSRLTISKDTSKNQVFLKIANVDTADTATYYCARISIPYGYYDWFFDVWGTGTTVTVSA
# VL: QAVVTQESALTTSPGETVTLTCRSSTGAVTTRNYANWVQEKPDHLFTGLIGGTNNRAPGVPARFSGSLIGDKAALTITGAQTEDEAIYFCALWYSNHFIFGSGTKVTVLG
# notes: as for B1
# B6: F2.151.13 human-murine chimeric antibody (antibody, human IgG1, lambda, V domains shown)
# VH: QVHLQQPGTELMKPGASVKLSCKATGYTFRDYWLEWVKQRPGHGLEWIGEILPGSGNAYYNEKFKGKATFTADTSSNTAYMQLSSLTTEDSAIYYCARVYSNWYFDAWGKGTTVTVSS
# VL: B5 VL with R32S, R56Q, T78S, Y94F, F98W, I99V, S102G, V106L
# notes: Chimeric, human IgG1 / lambda
# B7: F2.343.16 human-murine chimeric antibody (antibody, human IgG1, lambda, V domains shown)
# VH: QVQLKQSGPGLVQPSQSLSITCTVSGFSLTGYGVQWVRQSPGKGLEWLGVIWGGGGTDYNAAFISRLNIIKDNSKSQVFFKMNSLQADDTAIYYCARYSKYGHFDVWGTGTAVTVSS
# VL: QAVVTQESALTTSPGETVTLTCRSSTGAVTTSNYANWVQEKPDHLFTGLIGGTYNRVPGVPARFSGSLIGDKAALTITGAQTEDEAIYFCALWYSNHFWVFGGGTKLTVLG
# notes: as for B1
# How the values were obtained:
# [1] = target: T1, human CD22, endogenous on Raji cells; assay: FACS, Raji cells
# Excerpt: (§1) The required cells were scale-up cultured in a T-75 cell culture flask to the logarithmic growth phase. For the adherent cell CHO-K1, the medium was aspirated, the cells were washed 2 times with PBS buffer, and then digested with trypsin. After the digestion was terminated, the cells were washed 2 times with PBS buffer. For suspension cell Raji, the medium supernatant was directly centrifuged and discarded, and the cell pellet was washed 2 times with PBS. After counting the cells in the previous step, the cell pellet was resuspended with [PBS+2% (w/w) BSA] blocking solution to 2×10⁶ cells/ml, and added to a 96-well FACS reaction plate at 50 μl/well, and then the chimeric antibody test sample was added at 50 μl/well, and incubated on ice for 2 hours. The mixture was centrifuged and washed 3 times with PBS buffer, Alexa Flour 488-labeled secondary antibody (purchased from Invitrogen, catalog number: A-11013) was added at 50 μl/well, and incubated on ice for 1 hour. The obtained mixture was centrifuged and washed 5 times with PBS, and FACS (FACS Canto™, purchased from BD Company) was used for detection and result analysis. Data analysis was performed by software (CellQuest) to obtain the mean fluorescence density (MFI)of the cells. And then software (GraphPad Prism8) was used for analysis, data fitting, and EC50 value calculation. […] The same method was used to detect the binding of the chimeric antibodies to endogenous CD22-negative cell MoLT4 cells (purchased from ATCC, CRL-1582) and CHO-K1 cells.
# [2] = target: T2, human CD22, full length, on …; assay: FACS, CHO-K1-human CD22 2C4 cells
# Excerpt: as §1
# [3] = target: T3, murine CD22 protein (ACROBiosystems, …); assay: ELISA, coated murine CD22, 10 nM Ab
# Procedure, shortened: (§2)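 Read-out is TMB absorbance after a 30 min room-temperature development stopped with 1.0 N HCl. It reflects chimeric antibody bound to plate-coated CD22 (2 μg/mL), detected with an HRP-labelled secondary antibody. Antibody and secondary incubations each ran 2 h at 37° C.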
# [4] = target: T3, murine CD22 protein (ACROBiosystems, …); assay: ELISA, coated murine CD22, 0.1 nM Ab
# Procedure, shortened: as §2
# [5] = target: T3, murine CD22 protein (ACROBiosystems, …); assay: ELISA, coated murine CD22, 100 nM Ab
# Procedure, shortened: as §2
# [6] = target: T3, murine CD22 protein (ACROBiosystems, …); assay: ELISA, coated murine CD22, 0.01 nM Ab
# Procedure, shortened: as §2
# [7] = target: T3, murine CD22 protein (ACROBiosystems, …); assay: ELISA, coated murine CD22, 0.001 nM Ab
# Procedure, shortened: as §2
# [8] = target: T3, murine CD22 protein (ACROBiosystems, …); assay: ELISA, coated murine CD22, 0.0001 nM Ab
# Procedure, shortened: as §2
# [9] = target: T3, murine CD22 protein (ACROBiosystems, …); assay: ELISA, coated murine CD22, 0.00001 nM Ab
# Procedure, shortened: as §2
Binder,EC50 [1],Maximum mean fluorescence intensity [1],EC50 [2],Maximum mean fluorescence intensity [2],OD450 [3],OD450 [4],OD450 [5],OD450 [6],OD450 [7],OD450 [8],OD450 [9]
B1,0.59 nM,24400 MFI,1.22 nM,58500 MFI,0.07 OD450,0.06 OD450,0.1 OD450,0.05 OD450,0.05 OD450,0.06 OD450,0.06 OD450
B2,0.59 nM,18100 MFI,0.83 nM,44800 MFI,0.06 OD450,0.05 OD450,0.07 OD450,0.06 OD450,0.05 OD450,0.05 OD450,0.06 OD450
B3,0.41 nM,18600 MFI,0.82 nM,42000 MFI,0.06 OD450,0.06 OD450,0.09 OD450,0.05 OD450,0.05 OD450,0.06 OD450,0.06 OD450
B4,0.33 nM,16700 MFI,0.87 nM,41000 MFI,0.08 OD450,0.08 OD450,0.09 OD450,0.07 OD450,0.07 OD450,0.08 OD450,0.08 OD450
B5,0.38 nM,15500 MFI,0.72 nM,40200 MFI,0.06 OD450,0.05 OD450,0.07 OD450,0.05 OD450,0.05 OD450,0.05 OD450,0.06 OD450
B6,1.26 nM,18800 MFI,3.28 nM,37000 MFI,0.08 OD450,0.07 OD450,0.09 OD450,0.07 OD450,0.07 OD450,0.07 OD450,0.07 OD450
B7,0.8 nM,19300 MFI,1.15 nM,50200 MFI,0.06 OD450,0.05 OD450,0.07 OD450,0.05 OD450,0.05 OD450,0.05 OD450,0.06 OD450
